In US20240287172A1 (SCIRHOM, published 2024):
Substitutions are numbered along the chain they refer to.

T1: hiR2-FL-K542A-T7 (human, UniProt Q6PJF5 1-856)
T1 sequence: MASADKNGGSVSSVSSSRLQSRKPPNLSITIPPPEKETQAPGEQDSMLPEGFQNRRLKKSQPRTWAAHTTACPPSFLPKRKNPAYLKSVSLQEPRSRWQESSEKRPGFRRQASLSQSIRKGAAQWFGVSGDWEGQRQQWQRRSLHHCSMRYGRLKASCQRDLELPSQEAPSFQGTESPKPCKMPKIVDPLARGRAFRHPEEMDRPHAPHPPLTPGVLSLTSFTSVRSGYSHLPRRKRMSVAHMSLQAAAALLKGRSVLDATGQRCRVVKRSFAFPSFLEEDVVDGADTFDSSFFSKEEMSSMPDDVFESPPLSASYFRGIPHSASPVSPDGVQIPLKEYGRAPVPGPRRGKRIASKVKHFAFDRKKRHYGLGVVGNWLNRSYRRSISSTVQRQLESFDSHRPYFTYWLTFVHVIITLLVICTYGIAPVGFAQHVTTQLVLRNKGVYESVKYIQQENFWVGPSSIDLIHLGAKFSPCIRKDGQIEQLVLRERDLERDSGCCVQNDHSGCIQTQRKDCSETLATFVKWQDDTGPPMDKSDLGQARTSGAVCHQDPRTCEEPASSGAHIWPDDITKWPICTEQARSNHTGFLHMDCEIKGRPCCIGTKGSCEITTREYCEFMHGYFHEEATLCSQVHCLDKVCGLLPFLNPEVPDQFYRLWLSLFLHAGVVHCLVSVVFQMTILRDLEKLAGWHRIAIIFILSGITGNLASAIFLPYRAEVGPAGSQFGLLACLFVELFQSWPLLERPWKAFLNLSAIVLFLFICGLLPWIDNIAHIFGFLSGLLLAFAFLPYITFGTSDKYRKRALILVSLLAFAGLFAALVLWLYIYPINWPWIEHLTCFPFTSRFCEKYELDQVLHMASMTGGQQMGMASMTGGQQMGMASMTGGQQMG

T2: hiR2-FL-T522A-T7 (human, UniProt Q6PJF5 1-856)
T2 sequence: T1 sequence with T522A, A542K

B1: antibody 16 (antibody, V domains shown)
VH: QVTLKESGPGILQPSQTLSLTCSFSGFSLSTFALGVGWIRQPSGRGLEWLAHIWWDDDKYYNPALKSRLTISKDTSKNHVFLKIANVDTADTATYYCARITTYYYGMDYWGQGTSVTVSS
VL: DIVLSQSPATLSVTPGDSVSLFCRASQSIGNHLHWYQQESHASPRLLIKYASQSISGIPSRFSGSGSGTDFTLSINSVETEDFGMYFCQQSYNWPLTFGAGTKLELK
notes: mouse IgG, kappa light chain; also called clone #16; purified antibody 16
B2: antibody 3 (antibody, V domains shown)
VH: QVTLKESGPGILQPSQTLSLTCSFSGFSLTTFAMGIGWVRQPSGKGLEWLAHIWWDGEKYNNPVLKSRLTISKDTSKNQVFLRIANVDTPDTATYYCARISSIYYIIDNWGQGTSVTVSS
VL: B1 VL with S5T, D17H, F22S, G30S, H32N, Q38K, E39K, A42E, A51V
notes: mouse IgG, kappa light chain; also called clone #3; purified antibody 3
B3: antibody 48 (antibody, V domains shown)
VH: QVQLQQSGTELVRPGTSVKVSCKASGYAFTNYLIEWVKQRPGQGLEWIGVINPGSGFTKYNEKFKGKATLTADKSSSTVYMHLSSLTSEDSAVYFCARGLYRAMDYWGQGTSVTVSS
VL: DIQMTQSPASQSASLGESVTITCLASQTIATWLAWYQQKPGKSPQLLIYGATTLADGVPSRFSGGGSGTKFSFKISSLQAEDFVSYYCQQLYSTPYTFGGGTKLEIK
notes: mouse IgG, kappa light chain; also called clone #48; purified antibody 48
B4: antibody 50 (antibody, V domains shown)
VH: B3 VH with T9A, T16A, T30S, V79A, H82Q
VL: B3 VL with A30G, G50A, T52A, T53S, S85N, L91I
notes: mouse IgG, kappa light chain; also called clone #50; purified antibody 50

Key:
[1] = biological target: T1, hiR2-FL-K542A-T7; assay: FACS on MEF-DKO cells expressing the variant, 3 µg/ml antibody
Procedure, shortened: (§1)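 Flow cytometry read-out of binding to variant-expressing cells after two-step staining on ice: 1 h with antibody at 3 μg/ml, then 1 h with PE-labelled goat anti-mouse IgG F(ab′)2 diluted 1:100. Controls received FACS buffer without primary antibody.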

[2] = biological target: T2, hiR2-FL-T522A-T7; assay: as above
Procedure, shortened: as §1

| Binder | loss of binding vs wild type [1] [%] | loss of binding vs wild type [2] [%] |
| --- | --- | --- |
| B1 | ≥ 30 |  |
| B2 | ≥ 60 |  |
| B3 |  | ≥ 30 |
| B4 |  | ≥ 30 |
